According to the supplement of paper PMC10567573:

B1: HMOX1 (parent)
chain: YHIYVALEEEIERNKESPVFAPVY

Variants of: B1
Experiment: protein stability index of a GFP-peptide fusion (GPS, HEK-293T) (PSI 1-6); higher = more stable
Settings: c terminus: a fixed tail appended
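Note: lentivirally expressed fusions sorted by FACS into six bins by GFP to DsRed ratio, PSI derived from sequencing read proportions per bin multiplied by bin number.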

Going from YHIYVNLEEEIERNKESPVFAPVY [A6N] to YHIYVRLEEEIERNKESPVFAPVY [A6R], the protein stability index rises from 1.59 to 1.7.

Compared with YHIYVFLEEEIERNKESPVFAPVY [A6F], YHIYVCLEEEIERNKESPVFAPVY [A6C] is lower in protein stability index: 3.88 for the first, 1.64 for the second.

Compared with YHIYVWLEEEIERNKESPVFAPVY [A6W], YHIYVELEEEIERNKESPVFAPVY [A6E] is lower in protein stability index: 2.2 for the first, 1.88 for the second.

Going from YHIYVMLEEEIERNKESPVFAPVY [A6M] to YHIYVSLEEEIERNKESPVFAPVY [A6S], the protein stability index falls from 2 to 1.74.

First: YHIYVHLEEEIERNKESPVFAPVY [A6H]
Second: YHIYVILEEEIERNKESPVFAPVY [A6I]
The protein stability index of the first is higher: 3.14 for the first, 2.02 for the second.

Compared with YHIYVKLEEEIERNKESPVFAPVY [A6K], YTIYVALEEEIERNKESPVFAPVY [H2T] is lower in protein stability index: 2.42 for the first, 2.18 for the second.

Going from YQIYVALEEEIERNKESPVFAPVY [H2Q] to YVIYVALEEEIERNKESPVFAPVY [H2V], the protein stability index falls from 3.32 to 2.59.

First: YNIYVALEEEIERNKESPVFAPVY [H2N]
Second: YPIYVALEEEIERNKESPVFAPVY [H2P]
The protein stability index of the first is higher: 2.7 for the first, 2.62 for the second.

Going from YMIYVALEEEIERNKESPVFAPVY [H2M] to YRIYVALEEEIERNKESPVFAPVY [H2R], the protein stability index rises from 2.17 to 2.72.

First: YYIYVALEEEIERNKESPVFAPVY [H2Y]
Second: YLIYVALEEEIERNKESPVFAPVY [H2L]
The protein stability index of the first is lower: 1.89 for the first, 2.17 for the second.

Compared with YWIYVALEEEIERNKESPVFAPVY [H2W], YSIYVALEEEIERNKESPVFAPVY [H2S] is higher in protein stability index: 1.38 for the first, 2.46 for the second.

First: YHIYVAPEEEIERNKESPVFAPVY [L7P]
Second: YHIYVATEEEIERNKESPVFAPVY [L7T]
The protein stability index of the first is lower: 1.59 for the first, 1.88 for the second.

Going from YHIYVAWEEEIERNKESPVFAPVY [L7W] to YHIYVASEEEIERNKESPVFAPVY [L7S], the protein stability index falls from 2.2 to 1.56.

Compared with YHIYVACEEEIERNKESPVFAPVY [L7C], YHIYVAEEEEIERNKESPVFAPVY [L7E] is lower in protein stability index: 2.75 for the first, 1.76 for the second.

Going from YHIYVAMEEEIERNKESPVFAPVY [L7M] to YHIYVAIEEEIERNKESPVFAPVY [L7I], the protein stability index rises from 1.62 to 1.76.

Going from YHIYVAFEEEIERNKESPVFAPVY [L7F] to YHIYVAREEEIERNKESPVFAPVY [L7R], the protein stability index falls from 1.97 to 1.67.

Going from YHIYVAHEEEIERNKESPVFAPVY [L7H] to YHIYVAKEEEIERNKESPVFAPVY [L7K], the protein stability index rises from 1.49 to 2.2.

Going from YHIYVANEEEIERNKESPVFAPVY [L7N] to YHIYVAVEEEIERNKESPVFAPVY [L7V], the protein stability index rises from 1.88 to 2.93.

Going from YHIYVAAEEEIERNKESPVFAPVY [L7A] to YHIYVAQEEEIERNKESPVFAPVY [L7Q], the protein stability index falls from 2.34 to 2.16.

First: YHIYVAYEEEIERNKESPVFAPVY [L7Y]
Second: YHIYVAGEEEIERNKESPVFAPVY [L7G]
The protein stability index of the first is lower: 2.02 for the first, 2.48 for the second.

Compared with YHIYVADEEEIERNKESPVFAPVY [L7D], YHIYVALEEEYERNKESPVFAPVY [I11Y] is higher in protein stability index: 2.03 for the first, 2.21 for the second.

Going from YHIYVALEEEDERNKESPVFAPVY [I11D] to YHIYVALEEEKERNKESPVFAPVY [I11K], the protein stability index rises from 1.58 to 2.05.

Going from YHIYVALEEEEERNKESPVFAPVY [I11E] to YHIYVALEEEHERNKESPVFAPVY [I11H], the protein stability index rises from 1.89 to 2.01.

First: YHIYVALEEESERNKESPVFAPVY [I11S]
Second: YHIYVALEEENERNKESPVFAPVY [I11N]
The protein stability index of the first is higher: 2.15 for the first, 1.48 for the second.

Compared with YHIYVALEEEWERNKESPVFAPVY [I11W], YHIYVALEEEQERNKESPVFAPVY [I11Q] is lower in protein stability index: 2.18 for the first, 2.01 for the second.

Compared with YHIYVALEEERERNKESPVFAPVY [I11R], YHIYVALEEEPERNKESPVFAPVY [I11P] is higher in protein stability index: 1.56 for the first, 2.07 for the second.

Going from YHIYVALEEECERNKESPVFAPVY [I11C] to YHIYVALEEELERNKESPVFAPVY [I11L], the protein stability index falls from 2.46 to 1.57.

Going from YHIYVALEEETERNKESPVFAPVY [I11T] to YHIYVALEEEMERNKESPVFAPVY [I11M], the protein stability index rises from 1.54 to 2.16.

Compared with YHIYVALEEEGERNKESPVFAPVY [I11G], YHIYVALEEEAERNKESPVFAPVY [I11A] is lower in protein stability index: 2.24 for the first, 1.31 for the second.

First: YHIYVALEEEFERNKESPVFAPVY [I11F]
Second: YHIYVALEEEVERNKESPVFAPVY [I11V]
The protein stability index of the first is lower: 1.6 for the first, 1.84 for the second.

First: YHIYVALEGEIERNKESPVFAPVY [E9G]
Second: YHIYVALEKEIERNKESPVFAPVY [E9K]
The protein stability index of the first is lower: 2.06 for the first, 2.14 for the second.

Compared with YHIYVALESEIERNKESPVFAPVY [E9S], YHIYVALEREIERNKESPVFAPVY [E9R] is higher in protein stability index: 1.87 for the first, 2.02 for the second.

Going from YHIYVALEQEIERNKESPVFAPVY [E9Q] to YHIYVALEIEIERNKESPVFAPVY [E9I], the protein stability index falls from 1.75 to 1.62.

Going from YHIYVALEDEIERNKESPVFAPVY [E9D] to YHIYVALEHEIERNKESPVFAPVY [E9H], the protein stability index falls from 1.88 to 1.58.

Going from YHIYVALENEIERNKESPVFAPVY [E9N] to YHIYVALEMEIERNKESPVFAPVY [E9M], the protein stability index falls from 2.26 to 1.72.

Compared with YHIYVALEYEIERNKESPVFAPVY [E9Y], YHIYVALEAEIERNKESPVFAPVY [E9A] is lower in protein stability index: 1.98 for the first, 1.91 for the second.

Compared with YHIYVALELEIERNKESPVFAPVY [E9L], YHIYVALEPEIERNKESPVFAPVY [E9P] is higher in protein stability index: 2.57 for the first, 2.6 for the second.

Compared with YHIYVALEFEIERNKESPVFAPVY [E9F], YHIYVALETEIERNKESPVFAPVY [E9T] is lower in protein stability index: 2.43 for the first, 1.7 for the second.

First: YHIYVALEEIIERNKESPVFAPVY [E10I]
Second: YHIYVALEENIERNKESPVFAPVY [E10N]
The protein stability index of the first is lower: 1.74 for the first, 3.21 for the second.

First: YHIYVALEELIERNKESPVFAPVY [E10L]
Second: YHIYVALEEFIERNKESPVFAPVY [E10F]
The protein stability index of the first is higher: 2.27 for the first, 1.78 for the second.

Going from YHIYVALEEWIERNKESPVFAPVY [E10W] to YHIYVALEEHIERNKESPVFAPVY [E10H], the protein stability index rises from 1.26 to 1.97.

First: YHIYVALEESIERNKESPVFAPVY [E10S]
Second: YHIYVALEEDIERNKESPVFAPVY [E10D]
The protein stability index of the first is lower: 2.81 for the first, 2.93 for the second.

Going from YHIYVALEEAIERNKESPVFAPVY [E10A] to YHIYVALEEKIERNKESPVFAPVY [E10K], the protein stability index falls from 2.59 to 1.99.

Going from YHIYVALEEQIERNKESPVFAPVY [E10Q] to YHIYVALEECIERNKESPVFAPVY [E10C], the protein stability index falls from 2.7 to 1.93.

Compared with YHIYVALEEMIERNKESPVFAPVY [E10M], YHIYVALEETIERNKESPVFAPVY [E10T] is higher in protein stability index: 1.77 for the first, 2.83 for the second.

Going from YHIYVALEEVIERNKESPVFAPVY [E10V] to YHIYVALEEYIERNKESPVFAPVY [E10Y], the protein stability index rises from 1.92 to 2.

Compared with YHIYVALEEGIERNKESPVFAPVY [E10G], YHIYVALEERIERNKESPVFAPVY [E10R] is higher in protein stability index: 1.54 for the first, 1.56 for the second.
